{"source": "patent US6045809A", "about": "“Pharmaceutical compositions containing a superoxide dismutase” (Institut de Recherches Franctales, priority 1995, dated 2000)", "key": {"[1]": {"test": "Erythrocyte SOD kinetics in anaesthetized rats after oral administration (gavage)", "design": "species or system rat (male OFA, Sprague-Dawley)", "conditions": "rat, in vivo", "procedure": "(§1) The kinetics of the plasmatic SOD are analyzed in anaesthetized rats after the oral or subcutaneous administration of free SOD, liposomal SOD or SOD in the form of a composition according to the invention.\n(§2) The rats used are male OFA, Sprague-Dawley rats which are devoid of pathogenic germs, weigh 300 to 400 g and are not of the same blood type (IFFA CREDO breed).\nbovine erythrocyte SOD (Allerbiodose®) 1-2-4 mg/ml, in NaCl 0.9%,\nbovine erythrocyte SOD 1-2-4 mg/ml+plant ceramides 1% (Inocosm), in NaCl 0.9%, according to the invention,\nliposomal bovine erythrocyte SOD 1-2-4 mg/ml,\n(§3) bovine erythrocyte SOD+gliadin, according to the invention.\nThe gavage is performed on the animals (n=4) at T0 with a volume of 1 ml of solution or suspension to be studied, in 0.9% NaCl solution. This gavage is performed using a cannula mounted on a 1 ml syringe and introduced into the buccal cavity of the rat.\n(§4) Each series of experiments is carried out on 4 animals per dose, the control groups always being treated in parallel for each experiment.\n(§5) Once the gavage (or the subcutaneous injection) has been performed on the animals, the latter are anaesthetized by the slow intraperitoneal injection of thiopental (0.1 ml/100 g).\nThe samples are taken every hour for 6 hours (400 μl) via the one-way tap. The blood is collected in heparinated Eppendorf tubes (20 μl of heparin 1000 IU/ml). It is then centrifuged for 5 min at 4000 rpm. The plasma is then discarded and replaced with NaCl 0.9%. The tubes are centrifuged again for 5 min at 4000 rpm. The red blood cells are thus washed three times in succession.\nThe assays of the enzymatic activity of the erythrocyte SOD (of each form) are performed on each control or treated sample.\nThe erythrocytes are appropriately diluted in distilled water (+0.5 ml of 1% Triton solution) so that the inhibition obtained in the study tube is about 50% of that in the control tube.\nThe results obtained in IU SOD/ml are reported in IU SOD/mg haemoglobin. The haemoglobin is assayed by spectrophotometry at 405 nm."}, "[2]": {"test": "Erythrocyte SOD kinetics in anaesthetized rats after subcutaneous administration", "design": "species or system rat (male OFA, Sprague-Dawley)", "conditions": "rat, in vivo, sc", "procedure": "as §1, §2\nSubcutaneous administration:\nbovine erythrocyte SOD (Allerbiodose®) 0.5-1-2 mg/ml, in NaCl 0.9%,\nbovine erythrocyte SOD 0.5-1-2 mg/ml+plant ceramides 1% (Inocosm), in NaCl 0.9%, according to the invention,\nliposomal bovine erythrocyte SOD 0.5-1-2 mg/ml,\nas §3\nThe solutions or suspensions to be studied are administered at T0 by the injection of a volume of 0.3 ml (in 0.9% NaCl solution) behind the animal's head (n=4).\nas §4, §5\nThe samples are taken every hour for 6 hours (400 μl) via the one-way tap. The blood is collected in heparinated Eppendorf tubes (20 μl of heparin 1000 IU/ml). It is then centrifuged for 5 min at 4000 rpm. […]"}, "[3]": {"tested_on": "granulocytes", "test": "Granulocyte activation (production of superoxide anions after stimulation with zymosan or PMA)", "assay_type": "cell-based", "procedure": "The samples are those collected 3 hours after pleurisy.\nReagent control: PBS^+ (0.65 ml)+cytochrome C 5 mg/ml (0.15 ml).\nCell control: PBS^+ (0.65 ml)+cytochrome C 5 mg/ml (0.15 ml)+G 10 M/ml (0.2 ml).\nTest: PBS^+ (0.45 ml)+cytochrome C 5 mg/ml (0.15 ml)+ZO or PMA (0.2 ml), with: NaCl control (column 1), SOD (column 2), Ceramide control (column 3), SOD+ceramides (column 4), Liposome control (column 5), Liposomal SOD (column 6).\nIncubate for 15 minutes in a water bath at 37° C., with shaking,\nstop the reaction for 10 minutes in an ice bath,\ncentrifuge for 5 minutes at 2000 rpm."}, "[4]": {"tested_on": "rat paw oedema", "test": "λ carrageenan-induced paw oedema after oral administration (gavage)", "assay_type": "in vivo", "conditions": "dose of 0.5 mg/kg", "procedure": "To study the comparative kinetics of the anti-inflammatory action of a free form of SOD and a composition according to the invention, at different concentrations.\n2 gavages are performed per day (morning and evening).\nInjection of 0.1 ml of λ carrageenan 1% in the paw pad.\nThe measurements are made every hour for 6 hours."}}, "data": [{"substance": "SOD: bovine erythrocyte SOD (Allerbiodose®), in NaCl 0.9%", "values": [{"measurement": "Cmax (comparison in words)", "setting": "[1]", "value": "lower"}, {"measurement": "Concentrations/passage of SOD after oral administration (in words)", "setting": "[1]", "value": "reaches high concentrations when administered orally"}, {"measurement": "Tmax", "setting": "[1]", "value": "around 5 hours"}, {"measurement": "Cmax (comparison in words)", "setting": "[2]", "value": "slightly lower"}, {"measurement": "Significance (P) of the anti-inflammatory role", "setting": "[3]; by oral administration", "value": "< 0.05"}, {"measurement": "Effect of oral administration on granulocyte activation (in words)", "setting": "[3]; oral administration, FIGS. 18 to 20", "value": "inhibitory effect"}, {"measurement": "Number of gavages from which the anti-inflammatory effect is observed", "setting": "[4]", "value": "≥ 4", "unit": "gavages"}]}]}
